B1: CROP (parent)
chain: VFGRGDNISDVSKFLEDDKWMEE
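Further: lentivirally expressed fusions sorted by FACS into six bins by GFP to DsRed ratio, PSI derived from sequencing read proportions per bin multiplied by bin number.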

In the data set the parent is B1. In words: protein stability index of a GFP-peptide fusion (GPS, HEK-293T) (PSI 1-6); higher = more stable. Particulars: c terminus: native.
As for VFGRGDNISDVSKFLEDDHWMEE [K19H], the protein stability index came to 1.91.
The result for VFGRGDNISDVSKFLEDDEWMEE [K19E] reads 3.41.
The figure for VFGRGDNISDVSKFLEDDMWMEE [K19M] is 1.21; for VFGRGDNISDVSKFLEDDIWMEE [K19I] it is 2.28; for VFGRGDNISDVSKFLEDDFWMEE [K19F] it is 3.11.
Consider VFGRGDNISDVSKFLEDDLWMEE [K19L], for which the protein stability index was 1.89.
The result for VFGRGDNISDVSKFLEDDPWMEE [K19P] reads 3.01.
The result for VFGRGDNISDVSKFLEDDGWMEE [K19G] reads 1.95; that for VFGRGDNISDVSKFLEDDVWMEE [K19V], 2.27; that for VFGRGDNISDVSKFLEDDYWMEE [K19Y], 2.22.
The result for VFGRGDNISDVSKFLEDDDWMEE [K19D] reads 2.63; that for VFGRGDNISDVSKFLEDDTWMEE [K19T], 1.92.
As for VFGRGDNISDVSKFLEDDAWMEE [K19A], the protein stability index is 1.27.
The result for VFGRGDNISDVSKFLEDDWWMEE [K19W] reads 1.75; that for VFGRGDNISDVSKFLEDDNWMEE [K19N], 2.35; that for VFGRGDNISDVSKFLEDDSWMEE [K19S], 3.53.
In the case of VFGRGDNISDVSKFLEDDRWMEE [K19R], the protein stability index was found to be 2.5.
The figure for VFGRGDNISDVSKFLEDDCWMEE [K19C] is 1.62; for VFGRGDNISDVSKFLEIDKWMEE [D17I] it is 3.52; for VFGRGDNISDVSKFLEQDKWMEE [D17Q] it is 2.
The figure for VFGRGDNISDVSKFLEHDKWMEE [D17H] is 1.34.
The result for VFGRGDNISDVSKFLEFDKWMEE [D17F] reads 3.45.
With VFGRGDNISDVSKFLERDKWMEE [D17R], the protein stability index was 2.25.
Take VFGRGDNISDVSKFLENDKWMEE [D17N]: the protein stability index came out at 2.26.
The result for VFGRGDNISDVSKFLEYDKWMEE [D17Y] reads 2.73; that for VFGRGDNISDVSKFLEADKWMEE [D17A], 2.29.
Turning to VFGRGDNISDVSKFLEEDKWMEE [D17E], the protein stability index came to 2.41.
The result for VFGRGDNISDVSKFLEKDKWMEE [D17K] reads 2.83; that for VFGRGDNISDVSKFLETDKWMEE [D17T], 2.04.
The result for VFGRGDNISDVSKFLEVDKWMEE [D17V] reads 1; that for VFGRGDNISDVSKFLELDKWMEE [D17L], 1.29; that for VFGRGDNISDVSKFLESDKWMEE [D17S], 1.52.
The result for VFGRGDNISDVSKFLEDPKWMEE [D18P] reads 3.66.
On to VFGRGDNISDVSKFLEDHKWMEE [D18H], for which the protein stability index was found to be 1.49.
The result for VFGRGDNISDVSKFLEDNKWMEE [D18N] reads 2.44.
The result for VFGRGDNISDVSKFLEDLKWMEE [D18L] reads 1.97.
The result for VFGRGDNISDVSKFLEDQKWMEE [D18Q] reads 2.98; that for VFGRGDNISDVSKFLEDAKWMEE [D18A], 1.3.
Consider VFGRGDNISDVSKFLEDSKWMEE [D18S], for which the protein stability index came to 1.31.
The figure for VFGRGDNISDVSKFLEDWKWMEE [D18W] is 2.04; for VFGRGDNISDVSKFLEDVKWMEE [D18V] it is 1.77; for VFGRGDNISDVSKFLEDTKWMEE [D18T] it is 1.78.
The figure for VFGRGDNISDVSKFLEDGKWMEE [D18G] is 2.06; for VFGRGDNISDVSKFLEDKKWMEE [D18K] it is 2.69.
In the case of VFGRGDNISDVSKFLEDFKWMEE [D18F], the protein stability index turned out to be 1.66.
For the variant VFGRGDNISDVSKFLEDCKWMEE [D18C], the protein stability index came to 1.47.
The result for VFGRGDNISDVSKFLEDDKWMEV [E23V] reads 4.08; that for VFGRGDNISDVSKFLEDDKWMED [E23D], 5; that for VFGRGDNISDVSKFLEDDKWMES [E23S], 4.6.
The result for VFGRGDNISDVSKFLEDDKWMEY [E23Y] reads 3.76.
Regarding VFGRGDNISDVSKFLEDDKWMEI [E23I], the protein stability index was 4.38.
Turning to VFGRGDNISDVSKFLEDDKWMEK [E23K], the protein stability index amounted to 4.76.
The figure for VFGRGDNISDVSKFLEDDKWMEM [E23M] is 4.68; for VFGRGDNISDVSKFLEDDKWMEN [E23N] it is 4.41.
The result for VFGRGDNISDVSKFLEDDKWMEP [E23P] reads 3.67.
The figure for VFGRGDNISDVSKFLEDDKWMEC [E23C] is 4.1; for VFGRGDNISDVSKFLEDDKWMER [E23R] it is 4.6.
For VFGRGDNISDVSKFLEDDKWMEH [E23H], the protein stability index was determined as 4.53.
Take VFGRGDNISDVSKFLEDDKWMEQ [E23Q]: the protein stability index was found to be 4.37.
Turning to VFGRGDNISDVSKFLEDDKWMEL [E23L], the protein stability index came out at 3.54.
Regarding VFGRGDNISDVSKFLEDDKWMET [E23T], the protein stability index was 4.08.
The result for VFGRGDNISDVSKFLEDDKWMEA [E23A] reads 4.36; that for VFGRGDNISDVSKFLEDDKWMEF [E23F], 3.61; that for VFGRGDNISDVSKFLHDDKWMEE [E16H], 1.79.
The result for VFGRGDNISDVSKFLNDDKWMEE [E16N] reads 3.11; that for VFGRGDNISDVSKFLVDDKWMEE [E16V], 2.59; that for VFGRGDNISDVSKFLFDDKWMEE [E16F], 2.42.
Regarding VFGRGDNISDVSKFLGDDKWMEE [E16G], the protein stability index came to 2.4.
For the variant VFGRGDNISDVSKFLKDDKWMEE [E16K], the protein stability index worked out at 1.97.
The result for VFGRGDNISDVSKFLQDDKWMEE [E16Q] reads 1.95; that for VFGRGDNISDVSKFLADDKWMEE [E16A], 2.44; that for VFGRGDNISDVSKFLTDDKWMEE [E16T], 1.66.
The result for VFGRGDNISDVSKFLMDDKWMEE [E16M] reads 1.1; that for VFGRGDNISDVSKFLLDDKWMEE [E16L], 2.72.
The result for VFGRGDNISDVSKFLIDDKWMEE [E16I] reads 1.65; that for VFGRGDNISDVSKFLCDDKWMEE [E16C], 1.46.
Turning to VFGRGDNISDVSKFLPDDKWMEE [E16P], the protein stability index came to 2.12.
The result for VFGRGDNISDVSKFLSDDKWMEE [E16S] reads 2.03.
The figure for VFGRGDNISDVSKFLEDDKWMIE [E22I] is 3.81.
In the case of VFGRGDNISDVSKFLEDDKWMYE [E22Y], the protein stability index was 3.73.
The result for VFGRGDNISDVSKFLEDDKWMWE [E22W] reads 3.33; that for VFGRGDNISDVSKFLEDDKWMPE [E22P], 4.33.
The figure for VFGRGDNISDVSKFLEDDKWMAE [E22A] is 4.23; for VFGRGDNISDVSKFLEDDKWMKE [E22K] it is 4.73.
Turning to VFGRGDNISDVSKFLEDDKWMFE [E22F], the protein stability index was found to be 3.47.
The figure for VFGRGDNISDVSKFLEDDKWMCE [E22C] is 4.69; for VFGRGDNISDVSKFLEDDKWMRE [E22R] it is 3.32.
The result for VFGRGDNISDVSKFLEDDKWMSE [E22S] reads 4.51.
The figure for VFGRGDNISDVSKFLEDDKWMDE [E22D] is 4.23; for VFGRGDNISDVSKFLEDDKWMQE [E22Q] it is 3.96; for VFGRGDNISDVSKFLEDDKWMME [E22M] it is 4.28.
For the variant VFGRGDNISDVSKFLEDDKWMNE [E22N], the protein stability index was determined as 4.31.
The figure for VFGRGDNISDVSKFLEDDKWMTE [E22T] is 4.94; for VFGRGDNISDVSKFLEDDKWMHE [E22H] it is 4.54; for VFGRGDNISDVSKFLEDDKWMVE [E22V] it is 4.25.
For the variant VFGRGDNISDVSKFLEDDKWMLE [E22L], the protein stability index was determined as 4.07.
The figure for VFGRGDNISDVSHFLEDDKWMEE [K13H] is 1.71.

The record behind these values is the supplement of paper PMC10567573.
